Experimental data: publication PMC5988664

Biological target: endothelin-converting enzyme 1 (Ece1), monomer (mouse (endogenous in NMuMG and C2C12))
Assay: cross-linking

Sequence of endothelin-converting enzyme 1 (Ece1), monomer (Q4PZA2 whole entry): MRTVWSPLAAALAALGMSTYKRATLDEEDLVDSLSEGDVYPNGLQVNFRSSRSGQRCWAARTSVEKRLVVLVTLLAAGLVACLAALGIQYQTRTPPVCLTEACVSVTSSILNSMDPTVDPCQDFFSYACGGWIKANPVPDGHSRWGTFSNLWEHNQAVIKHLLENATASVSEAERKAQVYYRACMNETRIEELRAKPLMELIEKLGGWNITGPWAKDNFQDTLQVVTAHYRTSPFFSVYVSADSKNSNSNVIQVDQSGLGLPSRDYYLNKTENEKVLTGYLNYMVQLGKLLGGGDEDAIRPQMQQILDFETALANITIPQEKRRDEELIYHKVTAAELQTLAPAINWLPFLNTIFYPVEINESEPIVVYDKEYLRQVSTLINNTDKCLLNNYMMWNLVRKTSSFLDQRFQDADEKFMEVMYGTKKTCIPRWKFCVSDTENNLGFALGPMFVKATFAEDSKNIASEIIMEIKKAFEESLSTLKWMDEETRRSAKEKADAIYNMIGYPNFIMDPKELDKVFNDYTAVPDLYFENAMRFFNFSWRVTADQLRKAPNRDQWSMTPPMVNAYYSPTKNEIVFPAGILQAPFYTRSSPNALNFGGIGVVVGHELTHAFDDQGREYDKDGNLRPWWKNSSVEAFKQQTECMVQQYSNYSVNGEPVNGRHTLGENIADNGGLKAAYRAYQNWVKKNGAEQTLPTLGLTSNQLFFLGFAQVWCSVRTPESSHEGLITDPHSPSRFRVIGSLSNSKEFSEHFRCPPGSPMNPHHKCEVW

stoichiometry N: 2
Substance: endothelin-converting enzyme 1 (Ece1), monomer
